Measurements as given in article PMC6270800, “The Effect of Mini-PEG-Based Spacer Length on Binding and Pharmacokinetic Properties of a ^68Ga-Labeled NOTA-Conjugated Antagonistic Analog of Bombesin” (Molecules, 2014).

Legend:
[1] = type: physicochemical; settings: pH 7.4
Method: Aliquots of 50 μL were taken from each phase, and their radioactivity was measured in an automated gamma-counter with 3-inch NaI(Tl) detector (1480 WIZARD, Wallac OyTurku, Finland). Each measurement was repeated nine times. The distribution coefficient was calculated as the average log of a ratio of the radioactivity in the octanol and the PBS fractions.

PC-3 cells = experiment: Cellular uptake and internalization assay, PC-3 cells; type: cell-based, human; settings: ^111In-labeled, 24 h continuous incubation, 2 nM, 37 °C
Method: (§1) GRPR expressing human PC cell line PC-3 and human BC cell line BT-474 (ATCC) were cultured in RPMI media complemented with 10% FBS, 2 mM L-glutamine and PEST (penicillin 100 IU/mL) (all from Biochrom AG, Berlin, Germany). This media is referred as complete media in the text. In all in vitro experiments, cells were incubated in complete medium and detached using trypsin-EDTA solution (0.25% trypsin, 0.02% EDTA in buffer; Biochrom AG). All experiments were performed in triplicate and 1 × 10^6 cells/dish were seeded one day before the experiment.
(§2) At predetermined time points, the incubation media was discarded, the cells were washed and the membrane-bound and internalized radioactivity were collected using the method described earlier.

in vivo = settings: female, NMRI, mouse, iv, 45 pmol, total radioactivity
Method: The biodistribution of ^68Ga-labeled NOTA-PEGn-RM26 was evaluated in female NMRI mice (weight: 30 ± 3 g).
Female NMRI mice (3 mice per data point) were injected with 45 pmol of ^68Ga-NOTA-PEGn-RM26 (350 or 700 kBq, 100 µL in PBS) into the tail vein. The administrated peptide dose was adjusted to 45 pmol by dilution with non-labeled NOTA-PEGn-RM26. The mice were euthanized at 1 and 2 h p.i. by intraperitoneal injection of a Ketalar-Rompun solution (10 mg/mL Ketalar and 1 mg/mL Rompun; 20 µL of solution per gram of body weight). Blood samples were collected by heart puncture. The organs of interest were collected, weighed, and their radioactivity content was measured in the gamma-counter. The organ uptake values are expressed as %ID/g except for gastrointestinal (GI) tract (with content) and carcass in which data are presented as %ID per whole sample.

BT-474 cells = experiment: Cellular uptake and internalization assay, BT-474 cells; type: cell-based, human; settings: ^111In-labeled; BT474 cells; 24 h continuous incubation, 2 nM, 37 °C
Method: as §1, §2

PC-3 xenografts = type: in vivo, BALB/c nu/nu mice; settings: PC-3 tumors; 2 h p.i.
Method: (§3) To study tumor targeting, female BALB/c nu/nu mice bearing PC-3 and BT-474 xenografts (4 mice per data point) were intravenously injected with 45 pmol of ^68Ga-NOTA-PEG3-RM26 (700 kBq, 100 µL in PBS). The mice were euthanized at 2 h p.i. and the organ radioactivity content was measured and evaluated as described above. To test the in vivo binding specificity, a group of animals was co-injected with 20 nmol of unlabeled peptide, and biodistribution was measured at 2 h p.i.

BT-474 xenografts = type: in vivo, BALB/c nu/nu mice; settings: BT-474 tumors; 2 h p.i.
Method: as §3

SMILES	logD [1]	Internalization rate, % internalized radioactivity from total cell associated (PC-3 cells) [%]	tissue uptake dose at 1 h (in vivo; Uptake in GI (with content)) [%ID]	tissue uptake dose at 2 h (in vivo; Uptake in GI (with content)) [%ID]	tissue uptake dose at 1 h (in vivo; Uptake in carcass) [%ID]	tissue uptake dose at 2 h (in vivo; Uptake in carcass) [%ID]	LogD of ^68Ga-NOTA-PEGn-RM26 [1]	Internalization rate, % internalized radioactivity from total cell associated (BT-474 cells) [%]	Decrease of tumor uptake by co-injection of non-labeled peptide (PC-3 xenografts) [fold]	Decrease of tumor uptake by co-injection of non-labeled peptide (BT-474 xenografts)
CC(C)C[C@H](NC(=O)C[C@H](O)[C@H](CC(C)C)NC(=O)[C@H](Cc1c[nH]cn1)NC(=O)CNC(=O)[C@@H](NC(=O)[C@H](C)NC(=O)[C@H](Cc1c[nH]c2ccccc12)NC(=O)[C@H](CCC(N)=O)NC(=O)[C@@H](Cc1ccccc1)NC(=O)CCOCCOCCOCCOCCOCCOCCNC(=O)CN1CCN(CC(=O)O)CCN(CC(=O)O)CC1)C(C)C)C(N)=O [^68Ga-NOTA-PEG6-RM26, metal not drawn]	-2.5 ± 0.09									
CC(C)C[C@H](NC(=O)C[C@H](O)[C@H](CC(C)C)NC(=O)[C@H](Cc1c[nH]cn1)NC(=O)CNC(=O)[C@@H](NC(=O)[C@H](C)NC(=O)[C@H](Cc1c[nH]c2ccccc12)NC(=O)[C@H](CCC(N)=O)NC(=O)[C@@H](Cc1ccccc1)NC(=O)CCOCCOCCOCCOCCOCCOCCNC(=O)CN1CCN(CC(=O)O)CCN(CC(=O)O)CC1)C(C)C)C(N)=O [PEG6]		35 ± 2	2.8 ± 0.2	1.8 ± 0.5	3 ± 1	0.71 ± 0.05	−2.50 ± 0.09			
CC(C)C[C@H](NC(=O)C[C@H](O)[C@H](CC(C)C)NC(=O)[C@H](Cc1c[nH]cn1)NC(=O)CNC(=O)[C@@H](NC(=O)[C@H](C)NC(=O)[C@H](Cc1c[nH]c2ccccc12)NC(=O)[C@H](CCC(N)=O)NC(=O)[C@@H](Cc1ccccc1)NC(=O)COCCOCCNC(=O)CN1CCN(CC(=O)O)CCN(CC(=O)O)CC1)C(C)C)C(N)=O [^68Ga-NOTA-PEG2-RM26, metal not drawn]	-2.27 ± 0.07									
CC(C)C[C@H](NC(=O)C[C@H](O)[C@H](CC(C)C)NC(=O)[C@H](Cc1c[nH]cn1)NC(=O)CNC(=O)[C@@H](NC(=O)[C@H](C)NC(=O)[C@H](Cc1c[nH]c2ccccc12)NC(=O)[C@H](CCC(N)=O)NC(=O)[C@@H](Cc1ccccc1)NC(=O)CCOCCOCCOCCNC(=O)CN1CCN(CC(=O)O)CCN(CC(=O)O)CC1)C(C)C)C(N)=O [PEG3]	-2.47 ± 0.06	31 ± 2	3.7 ± 0.8	2.5 ± 0.7	2.1 ± 0.4	0.7 ± 0.1		32 ± 2		
CC(C)C[C@H](NC(=O)C[C@H](O)[C@H](CC(C)C)NC(=O)[C@H](Cc1c[nH]cn1)NC(=O)CNC(=O)[C@@H](NC(=O)[C@H](C)NC(=O)[C@H](Cc1c[nH]c2ccccc12)NC(=O)[C@H](CCC(N)=O)NC(=O)[C@@H](Cc1ccccc1)NC(=O)CCOCCOCCOCCOCCNC(=O)CN1CCN(CC(=O)O)CCN(CC(=O)O)CC1)C(C)C)C(N)=O [PEG4]	-2.49 ± 0.1		3.5 ± 0.6	3.1 ± 0.9	2.3 ± 0.5	1.2 ± 0.3				
CC(C)C[C@H](NC(=O)C[C@H](O)[C@H](CC(C)C)NC(=O)[C@H](Cc1c[nH]cn1)NC(=O)CNC(=O)[C@@H](NC(=O)[C@H](C)NC(=O)[C@H](Cc1c[nH]c2ccccc12)NC(=O)[C@H](CCC(N)=O)NC(=O)[C@@H](Cc1ccccc1)NC(=O)COCCOCCNC(=O)CN1CCN(CC(=O)O)CCN(CC(=O)O)CC1)C(C)C)C(N)=O [PEG2]			4 ± 2	2.88 ± 0.06	4 ± 1	0.9 ± 0.4	−2.27 ± 0.07			
CC(C)C[C@H](NC(=O)C[C@H](O)[C@H](CC(C)C)NC(=O)[C@H](Cc1c[nH]cn1)NC(=O)CNC(=O)[C@@H](NC(=O)[C@H](C)NC(=O)[C@H](Cc1c[nH]c2ccccc12)NC(=O)[C@H](CCC(N)=O)NC(=O)[C@@H](Cc1ccccc1)NC(=O)CCOCCOCCOCCNC(=O)CN1CCN(CC(=O)O)CCN(CC(=O)O)CC1)C(C)C)C(N)=O [^68Ga-NOTA-PEG3-RM26, metal not drawn]									~5	more than 7 fold
